# The RNAGym collection of RNA variant scans (doi:10.7554/elife.90254)
# B1: LINE1-mini (parent)
# chain: GGCAGAGCUCAACACAGCGUGGCAAAGUGGCUGUGGCUAGACUGCC
# Variants of: B1
# Assay: self-cleavage, relative activity (ratio to wild type); higher = more cleavage; in vitro, sequencing; the parent is a self-cleaving ribozyme
row,Variant,self-cleavage
1,C10U G27C,0.23
2,A6U U9G,0.15
3,A14G C23U,0.85
4,C31G A39G,0.03
5,A16G G21C,0.34
6,C10U U38G,0.03
7,G36A G44C,0.15
8,C8A,0.29
9,A24C U28G,0.35
10,G5C A16G,0.04
11,G19U U34A,0.13
12,C13U U38G,0.02
13,A39C C42A,0.1
14,A25U U32C,0.27
15,G19A C23U,1.06
16,C10G G30U,0.22
17,G22C A41C,0.05
18,U28G A39U,0.56
19,G36C C42G,0.07
20,U32A C37G,0.08
21,A6U A16G,0.14
22,C8G G22A,0.1
23,U32G C37G,0.04
24,A6C C15A,0.1

row,Variant,self-cleavage
1,G7C C42G,0.1
2,U34A U38G,0.06
3,A11C U32A,0.04
4,A4C C18G,0.11
5,A6C A12G,0.04
6,G2U G33U,0.04
7,G2C U28G,0.05
8,G33A C46G,0.08
9,G7U C13G,0.08
10,G5A G44A,0.1
11,A16U C46A,0.09
12,G5A U43C,0.07
13,C8G C46A,0.05
14,G2A A16C,0.16
15,G7C G19U,0.07
16,A16C C37G,0.02
17,A4U C31G,0.05
18,G36U U38G,0.02
19,G2A G35U,0.41
20,U34A C37G,0.04
21,U20C C42G,0.04
22,U28A C45A,0.29
23,C37G G40A,0.08
24,U20C U34C,0.18

row,Variant,self-cleavage
1,C23A G44U,0.28
2,A14G C46A,0.2
3,G2C G27C,0.12
4,U20G C45G,0.25
5,G35U G44C,0.07
6,A4U C46A,0.16
7,C18U C45A,0.79
8,A14C C46G,0.08
9,G2C A11C,0.02
10,C42U G44C,0.13
11,U9A G22C,0.09
12,G2U C45G,0.23
13,A6C G29U,0.61
14,G33C A41C,0.05
15,C8U U28C,0.2
16,G22U C46G,0.91
17,A4C U28G,0.18
18,G5C C8G,0.07
19,G7A G33C,0.12
20,G1C C13U,0.04
21,G17C G21U,1.65
22,U34A G36A,0.09
23,A11U G21U,0.1
24,G22A C23G,0.47

row,Variant,self-cleavage
1,A4C C8G,0.07
2,G22C G40C,0.08
3,A12C G40C,0.03
4,A16U A39G,0.07
5,A25U G33U,0.13
6,A6U U38C,0.27
7,U20G G29U,0.48
8,C13G A39U,0.05
9,G21C,0.72
10,G17U G19A,0.78
11,U20A U38C,0.41
12,C23A G40C,0.15
13,G30A G36C,0.07
14,U20G G44C,0.26
15,U9A G19U,0.08
16,G1U C8U,0.12
17,A26C G35C,0.16
18,A4C U32A,0.18
19,C42A G44A,0.25
20,C23U G36A,0.14
21,A11G U32C,0.04
22,G7U C31A,0.09
23,G22C C23A,0.92
24,G1A C18G,0.38

row,Variant,self-cleavage
1,G2U A25G,0.03
2,G36C C42U,0.09
3,U32C C45U,0.12
4,A4U C18G,0.08
5,U9A C37U,0.12
6,U34G A39U,0.09
7,C15G G30C,0.08
8,G27C U38A,0.34
9,A11C C45A,0.05
10,C23U U32G,0.36
11,U28C G29U,0.77
12,A6G A26G,0.1
13,A12C C45U,0.03
14,A12U G19C,0.32
15,G7C G22A,0.11
16,A11G A16U,0.03
17,C10G U43G,0.02
18,G30U U43A,0.11
19,A24C C45A,0.16
20,C37A A39G,0.05
21,C10U U20A,0.18
22,G2C G30U,0.29
23,C13G A24U,0.16
24,G2A C31A,0.23

row,Variant,self-cleavage
1,G7C A11U,0.04
2,A12G U38G,0.02
3,G7A G36C,0.27
4,C3G U43A,0.41
5,G1C A4G,0.07
6,A41U G44U,0.16
7,C10G G35C,0.02
8,C23U A25U,0.93
9,U32A U43G,0.11
10,U9G A16C,0.03
11,G27U U43G,0.11
12,A12C G40U,0.03
13,A6C C18U,1.1
14,A16U U28C,0.55
15,G1U U9G,0.03
16,C13A U28C,0.15
17,C31A C37U,0.09
18,A11C U38A,0.02
19,A26C G36U,0.07
20,C13U C15A,0.08
21,C3A U9G,0.57
22,A6C G27A,0.5
23,U28G U38A,0.19
24,C31U G33U,0.06

row,Variant,self-cleavage
1,G5U C13A,0.09
2,G27C G35C,0.25
3,C18U G30C,1.82
4,A12U U32G,0.08
5,G7A U38A,0.09
6,G40C C45A,0.09
7,A41C C45A,0.11
8,A4C A24U,0.17
9,C31A C37A,0.08
10,A6U U32C,0.1
11,C18A A41U,0.34
12,C10A A25C,0.05
13,C15U U38G,0.04
14,G5C G44U,0.09
15,C13A G29U,0.2
16,U32A U38A,0.09
17,A25C C46A,0.36
18,A4U C37G,0.08
19,G35C C46U,0.06
20,A11G U38G,0.02
21,A4C A26U,0.11
22,C37A C46G,0.06
23,C8U G44A,0.39
